Assay: yeast display, Sf9 membrane polyspecificity reagent, FACS + sequencing; frameworks hold sequencing errors
Summary of the method: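 Using colony PCR, genes from sorted yeast display clones were amplified, then sequenced on MiSeq at 2 × 250 and filtered by CDR length. The clones had been stained with 10% biotinylated, detergent-solubilized Sf9 membrane reagent for 1 hour at 4 °C and sorted by FACS into low and high (top ~1%) gates on anti-HA and streptavidin fluorescence. Polyreactivity labels come from the gate of origin.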

Row | Sequence | polyreactivity (PSR sort gate)
1 | QVQHVESGGGLVQAGGSLRLSCAASGSTFRVNAMGWYRPAPGKERELVAGISKSGTSTYYADSVKGRFTISRDNAKNTVYLQMNSLKPEDTAVYYCIKGYYRHPDESDYWGQGTQVTVSS | high polyreactivity
2 | QVQLVESGGGLVQAGGSLRLSCAASGITFTGYAMGWYRQAPGKERELVAVISETGGSTYADSVKGRFTISRDNAKNTVYLQMNSLKPEDTAVYYCAARLWWPYSTAWAKMDYWGQGTQVTVSS | low polyreactivity
3 | QVQLVESGGGLVQAGGSLRLSCAASGRIFGRYVMGWYRQAPGKERELVAAITSRDDSTYYADSVKGRFTISRDNAKNTVYLQMNSLKPEDTAVYYCAATWGRGYDYWGQGTQVTVSS | high polyreactivity
4 | QVQLVESGGGLVQAGGSLRLSCAASGRNFDWYAMGWYRQAPGKERELVAAISTSGANTYYADSVKGRFTISRDNAKNTVYLQMNSLKPEDTAVYYCATDPYQPYEGDYWGQGTLVTVSS | low polyreactivity
5 | QVHLVESGGGLVQAGGRLRLSCAASGFTIGHYAMAWYRQAPGKERELVAAISSGDRTYYADSVKGRFTISRDNAKNTVYLQMNCLKPEDTAVYFCNGVYYSWAQSARFDYWGQGTQVTVSS | low polyreactivity
6 | QVQLVESGGGIFQAGGSLRLSCAASGRIYNYYAMGWTRQAPGQEREFVAAITRSGGRPYYADSVKGRFTISRDKGKNTVYLLMNSLKPEDTAVYYFAAPFGTYAYDYWGQGTLVTVSS | high polyreactivity
7 | QVHLVESGGGLVQAGGSLRLSCAASGSTFLLNAMGWYRQATGKERELVAGITGSGGRTYYADSVKGRFTISRDNAKNTVYLQMNSLKPEDTAVYYCAAYRNLYWYQHEYWGQGTLVTVSS | low polyreactivity
8 | QVQLVESGGGLVQAGGSLRLSCAASGSTFKTYTMGWYRQAPGKERELVAGITSGGSTSYADSVKGRFTISRDNAKNTVYLQMNSLKPEDTAVYYCNADAYLVIYFYTVRDYGYDYWGQGTQVTVSS | low polyreactivity
9 | QVQLVESAARLVQAGGSLRLSCAPSGNIFKGYAMGCYRQAPGKHRELVAAITSGDSTNYADSVKGRFTISRDNAKNTVYLQMNSLKPEDTGVYYCNARYSWWRSRDGSSHRPDGYWGQGTQVTVSS | high polyreactivity
10 | QVQLVESGGGLVQAGGSLRLSCAASGRTFSGNAMGWYRQAPGKERELVAAITGRGGTTYYADSVKGRFTISRDNAKNTVYLQMNSLKPEDTAVYYCAADTKLSYQWFDYWGQGTQVTVSS | high polyreactivity
11 | QVQLVESGGGLVQAGGSLRLSCAASGRTLGRYAMGWYRPAPGKERELVAAITRRGGITYYADSVKGRFTISRDNAKNTVYLQMNSLKPEDTAVYYCNAVNKSLQPVRDVYPLYRHDYWGQGTQVTVSS | high polyreactivity
12 | QVQLVESGGGLVQAGGSLRLSCAASGSIFYQYAMGWYRQAPGKERELVAGITWSGGSTYYADSVKGRFTISRDNAKYTVYLQMNSLKPEDTAVFYCAAQYFWYVYSYDYWGQGTQVTVSS | high polyreactivity
13 | QVQLVESGGGLVQAGGSLRLSCAASGGSFYNYPMGWYRQAPGKERELVAAITYSGVRTNYADSVKGRFTISRDNAKNTVYLQMNSLKPEDTAVYYCAADGLSNVRQMDYWGQGTQVTVSS | low polyreactivity
14 | QVQLVESGGGLVQAGGSLRLSCAASGSIFFYYAMGWYRQAPGKERELVAAINWSGVNTYYADSVKGRFTISRDNAKNTVYLQMNSLKPEDTAVYYCNAVVSLTSYGYLGYRFDYWGQGTQVTVSS | low polyreactivity
15 | QVQLVESGGGLVQAGGSLRLSCAASGSTLLWNTMGWYRQAPGKERELVAAISITGSTNYADSVKGRFTISRDNEKNTVYLQMNSLKPEDTAVYYCAAPYGLPWWYGSWGQGTQVTVSS | low polyreactivity
16 | QVQLVESGGGLVQAGGSLRLSCAASGRISGVNAMGWYRQAPGKERELVATISGSGGRTYYADSVKGRFTISRDNAKNTVYLQMNSLKPEDTAVYYCNTLVQRGGYFSRRFDYWGQGTQVTVSS | low polyreactivity
17 | QVQLVESGGGLVQAGGSLRLSCAASGFIFYYYAMGWYRQAPRKERELVAAISRSGGSTYYADSVKGRFTISRDNAKNTVYLQMNSLKPEDTAVYYCNTVPGTLYFRYDYWGQGTQVTVSS | high polyreactivity
18 | QVQLVESGGGLVQAGGSLRLSCAASGRTFGGYTMGWYRQATGKEMELVAAITGSGSNTYYADSVKGRFTISRDNAKNTVYLQMNSLKPEDTAVYYCAAPYSYRTWYPYGYWGQGTQVTVSS | high polyreactivity
19 | QVQLVESGGGLVQAGGSLRLSCAASGSTLGVYVMGWYRPAPGKERELVAAISRNGGSTYYADSVKGRFTISRDNAMNTVYLQMNSLKPEDTAVYYCAARTVGRKAGFDYWGQGTQVTVSS | high polyreactivity
20 | QVQLVESGVGLVQAGGSLRLICAASGFTFAKYAMGWYRQAPGKERELVAAISRSAGSTYYADSVKGRFTISRDYAKNTVYLQMNSLIPDDTAVYYCAADPLIYDDYYWGQGSQVTVSS | high polyreactivity
21 | QVHLVESGGGLVQAGGSLRLSSAASGFTFPWYAMGWYRQAPGKERELVATITRGGSTYYADSVKGRFTISRDNAKNTVYLQMNSLKPEDTAVYYCAVTYWRYHSYSPYDYWGQGTQVTVSS | high polyreactivity
22 | QVQLVESGGGLVQAGVSLRLSCAASGFTFSRNAMGWYRQAPGKERELVAAISRSGGSTYYAYSVKGRFTISRDNAKNTVYLQINSLKQEDTAVYYCATSCTPNYFVTSDYWGQGTQVTVSS | high polyreactivity

Row | Sequence | polyreactivity (PSR sort gate)
23 | QVQLVESGGGLVQAGGSLRLSCAASGSIFGYYAMGWYRQAPGKERELVAAISGSGGSTYYADSVKGRFTISRDNAKYTVYLQMNRLKPEDTAVYYCAAAYHGRHYYWGQGTQVTVSS | high polyreactivity
24 | QVQLVESGGGLVQAGGSLRLSCAASGSILVAYAMGWYRQAPGKERELVAAISSVGNTYYADSVKGRFTISRDNAKNTVYLQMNSLIPEDTAVYYCNAVYRVWYAEWSTVGSPHDYWGQGTQVTVSS | low polyreactivity
25 | QVQLVESGGGLVQAGGSLRLSCAASGSIFQVYAMGWYRQAPGKEREFVAAISYSGGGTYYADSVKGRFTISRDTAKNTVYLQMNSLKPEDSAVYYCAATEQYGRDSWSSYRIFPPYDDWGQGTQVTVSS | low polyreactivity
26 | QVQLVESGGGLVQAGGSLRLSCAASGRTLGRNAMGWYRQAPGKERELVASISSGGSTNYADSVKGRFTISRDNAKNTVYLQMNSLKPEDTAVYYCNKRYRSLYSSGYDYWGQGTQVTVSS | high polyreactivity
27 | QVQLVESVGGLVQAGGSLRLSCAASGRTFFKYAMGLYRQAPGKERELVAAITGRGGSTYADSVKGRFTISRDNAKNTVYLQMNSLKPEDTAVYYCAKVYQRGAQYYYYKYDYWGQGTQVTVSS | high polyreactivity
28 | QVQLVESGGGLVQAGGSLRLSCAASGRTFVDYDMGWYRQAPGKERELVADINSGGSAYYADSVKGRFTISRDNAKNTVYLQMNSLKPEDTAVYYCAASYYGDNKYDYWGQGTQVTVSS | high polyreactivity
29 | QVQLVESGGGLVQAGGSLRLSCAASGITFVFYAMGWYRQAPGKARELVATISYRGTSTYYADSVKGRFTISRDNAKNTVYLQMNSLKPEDTAVSYCAGDTYIYYKTGYGYWGQGTQVTVSS | low polyreactivity
30 | QVQLVESGGGLVQAGGSLRLSCAASGIIFLQYAMGWYRQAPGKERELVAAITRRGDRTYYADSVKGRFTISRDNAKNTVYLQMNSLKPEDTAVYYCAASYWYRDYYYWGQGTQVTVSS | high polyreactivity
31 | QVQLVESGGGLVQAGGSLRLSCAASGIIFSSYVMGWYRQAPGKERELVAAISKSGARTSYADSVKGRFTISRDNAKNTVYLQMNSLKPEDTAVYYCAATYLLERPTSKHPRYDYWGQGTQVTVSS | low polyreactivity
32 | QVQLLESGGGLVQAGGSIRLSFADSAFIFTSYSIGRYRQAPGKEREFVAAISWTGGTYYADSVKGRFTISRDNAKNTVYFLINSLKPEDTAVYYCAVRYKRKGSGYRYYLYVYWGQGTQVTVSS | high polyreactivity
33 | QVQLVESGGGLVQAGGSLRLSCAASGSIFSYNLMGWYRQAPGKERELVAAITRSCGSTYYADSVKGRFTISRDNAKNTVYLQMNSLKQEDTAVYYCAVGWADQDPFIMDFWGQGTQVTVSS | low polyreactivity
34 | QVQLVESGGGLVQAGGSLRLSCAASGRTFADFTMGWYRQAPGKERELVAAISFSGGSTYYADSVKGRFTISRDNAKNTVYLHMNSLKPEDTAVYYCAAGHKRRAPRYYDWGQGTQVTVSS | high polyreactivity
35 | QVQLVESGGGLVQAGGSLRLSCAASGGTSIYNDMGWYRQAPGKERELVAAISWSGGSTYYADSVKGRFTISRDNAKNTVYLQMNSLKPEDTAVYYCATQGFYKDYSRYDYWGQVTQVTVSS | low polyreactivity
36 | QVQLVESGGGLVQAGGSLRLSCAASGSTFQLYSMGWYRQAPGKERELVAAIRWRGGSTYYADSVKGRFTISRDNAKNTVYLQMNSLKPEDTAFYYCAAVGYNYNVEYYYWGQGTQVTVSS | high polyreactivity
37 | QVQLQVSGGDLVPAGGSLRLSCAGSGTIYGLTSMAWYRQAPGKEREFVAAITDGGNANYADSVKGRFTISRDNAKNTVYLQMISLKPEDTAVYYCAVLFSDDAYYAYWGQGTQVTVSS | low polyreactivity
38 | QDQLVESGGGIVQAGGSLRLSCAASGSTFDFNAMGWYRQAPGKERELVASISWETGGTYADSVKGRFTISRDNGKNTVYLQMKSLNPEDTAVYYCAARPDYFIFEYWGQGTQVTVSS | low polyreactivity
39 | QVQLVESGGGLVQAGGSLRLSCAASGIIFLRNTMGWYRQAPGKERELVASISRRGGSTYYADSVKGRFTISRDNAKNTVYLQMNSLKPEDTAVYYCNKRSLEKGDYWGQGTQVTVTS | high polyreactivity
40 | QVQLVESGGGLVQAGGSLRLSCAASGSIFSYYAMGWYRQAPGKERELVAAISQNGGSTYYADSVKGRFTISRDNAKNTVYLQMNSLKPEDTAVYYCNAYSVYVRGEYWGQGTQVTVSS | high polyreactivity
41 | QVQLEESGGGLVQAGGSLRLSCAASGRIFATNAMGWYRQAPGKERELVATITRSAGRTYYADSVKGRFTISRDNAKNTVYLHMNSLKPEDTAVYYCASSYWDTEPVYREYDYWGQGTQVTVSS | low polyreactivity
42 | QVQLVESGGGLVQSGGSLRLRCAASGRIFGGYAMGWYRQAPGKERELVAAISWRGGSTSYADSVKGRFTISRDNAKNTVYLQMNSLKPEDTAVYYCAKYWGHTYGSWGQGTQVTVSS | high polyreactivity
43 | QVQLHESGGGLVQAGGSMRLSCEASGTISYAGTMGWYRQAPGKEREFVAGIGLGSNTNYADSVKGRYTIIRDNEKKSVYLQMNSLKPEDTSLYYFAVGVYDPLGRPYWCQGTQVTVSS | low polyreactivity
